Results as given in patent US20250296996A1 (BROADWING BIO, published 2025).

T1: P60 (huANGPTL7-Fibrinogen-his) (human, UniProt O43827 129-343)
T1 construct: also called human ANGPTL7 fibrinogen domain; not shown: C-terminal short linker and His tag
T1 sequence: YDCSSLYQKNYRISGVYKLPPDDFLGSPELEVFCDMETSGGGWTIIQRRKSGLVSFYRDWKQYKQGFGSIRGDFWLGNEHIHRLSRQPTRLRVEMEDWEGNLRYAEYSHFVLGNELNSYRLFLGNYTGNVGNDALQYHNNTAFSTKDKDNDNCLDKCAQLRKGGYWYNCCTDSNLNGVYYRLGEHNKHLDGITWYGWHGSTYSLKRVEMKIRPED

T2: P63 (huANGTPL7-GGPGG_sub-his) (human, UniProt O43827 27-346)
T2 construct: also called full length human ANGPTL7 monomeric variant L59 GGPGG; not shown: C-terminal short linker and His tag
T2 sequence: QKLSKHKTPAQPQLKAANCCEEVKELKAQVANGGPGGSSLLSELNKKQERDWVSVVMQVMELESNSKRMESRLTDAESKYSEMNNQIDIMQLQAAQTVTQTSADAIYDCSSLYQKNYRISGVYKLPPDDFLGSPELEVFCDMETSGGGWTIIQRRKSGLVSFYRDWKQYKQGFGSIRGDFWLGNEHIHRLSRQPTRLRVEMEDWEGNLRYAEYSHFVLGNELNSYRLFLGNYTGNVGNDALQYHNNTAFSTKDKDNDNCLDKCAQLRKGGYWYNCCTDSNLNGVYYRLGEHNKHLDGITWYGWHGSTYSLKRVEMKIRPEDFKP

T3: P66 (rabbit ANGPTL7-his) (rabbit, UniProt G1T4P1 27-344)
T3 construct: mature; also called rabbit ANGPTL7 protein
T3 sequence: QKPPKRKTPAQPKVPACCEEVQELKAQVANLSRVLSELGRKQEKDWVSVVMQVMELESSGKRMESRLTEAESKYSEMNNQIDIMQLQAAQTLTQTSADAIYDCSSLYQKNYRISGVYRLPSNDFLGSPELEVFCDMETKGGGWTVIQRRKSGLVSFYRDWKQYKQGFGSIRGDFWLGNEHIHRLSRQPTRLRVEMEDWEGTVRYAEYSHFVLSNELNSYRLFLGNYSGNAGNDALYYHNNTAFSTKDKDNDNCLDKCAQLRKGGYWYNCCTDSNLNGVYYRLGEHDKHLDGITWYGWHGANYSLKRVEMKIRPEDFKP

T4: Pext-01 (huANGTPL7-FLAG multimer) (human, UniProt O43827 27-346)
T4 construct: also called PExt-1; human wild type ANGPTL7 multimer; not shown: FLAG tag
T4 sequence: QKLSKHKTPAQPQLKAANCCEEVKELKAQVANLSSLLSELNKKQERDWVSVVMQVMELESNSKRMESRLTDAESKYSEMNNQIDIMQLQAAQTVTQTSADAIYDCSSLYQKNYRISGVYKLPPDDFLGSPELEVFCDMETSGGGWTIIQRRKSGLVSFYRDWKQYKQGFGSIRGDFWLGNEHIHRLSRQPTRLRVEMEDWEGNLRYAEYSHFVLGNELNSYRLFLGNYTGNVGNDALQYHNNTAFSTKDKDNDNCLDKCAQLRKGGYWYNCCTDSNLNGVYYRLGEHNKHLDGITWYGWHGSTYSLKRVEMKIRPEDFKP

B1: ATX-P-443 (antibody, human IgG1, kappa, N297A, V domains shown)
VH: QVQLVQSGAEVKKPGASVKVSCKASGYTFTSYGISWVRQAPGQGLEWMGWIIAYNGNTNYAQKLQGRITMTTNTSTNTAYMELRSLRSDDTAVYYCGRDTGFSFDYWGQGTLVTVSS
VL: not shown
notes: Full chains (VH + hIgG1-Agly-Fc)
B2: ATX-P-449 (antibody, human IgG1, kappa, N297A, V domains shown)
VH: QVQLVESGGGVVQPGRSLRLSCAASGFAFSSYGMHWVRQAPGKGLEWVAVISYYGSNKYYADSVKGRFTISRDNSKNTLYLQMNSLRAEDTAVYHCARGITMDVWGKGTTVTVSS
VL: EIVLTQSPATLSLSPGERATLSCRASQSVSSYLAWYQQKPGQAPRLLIYDASNRATGIPARFSGSGSGTDFTLTISSLEPEDFAVYYCQQRSNWPLTFGGGTKVEIKR
notes: as for B1
B3: ATX-P-428 (antibody, human IgG1, kappa, N297A, V domains shown)
VH: QVQLVQSGAEVKKPGASVKVSCKASGYTFSSYGISWVRQAPGQGLEWMGWISAYNGNTNYAQNLRGRVAMTTDTSTTTAYMELRSLRSDDTAVYYCARVSLVWFGELPRGFDYWGQGTLVTVSS
VL: not shown
notes: as for B1

Experiments:
[1] = target: T1, P60 (huANGPTL7-Fibrinogen-his); assay: BLI Octet HTX; IgG on AHC sensor; P60 at 200 nM
Experimental: ANGPTL7 Antibody Kinetics. Experiments were conducted to determine the reactivity and dissociation constants (KD) of anti-ANGPTL7 antibodies with the human fibrinogen domain of the ANGPTL7 protein. Binding experiments were performed on Octet HTX (ForteBio) in 1×PBS, pH 7.4, 0.1 mg/ml BSA, 0.05% Sodium Azide, and 0.02 Tween 20. Antibodies at a concentration of 50 nM were loaded on pre-hydrated AHC biosensors for 5 min. The loaded sensors were dipped into monovalent P60 (huANGPTL7-Fibrinogen-his) at a concentration of 200 nM for 5 min association, followed by 10 min dissociation. […] Responses (nm) at the end of association were also determined (Table 2).

[2] = target: T2, P63 (huANGTPL7-GGPGG_sub-his); assay: BLI Octet HTX; IgG on AHC sensor; P63 at 100 nM
Experimental: Experiments were also conducted to determine the reactivity and dissociation constants (KD) of anti-ANGPTL7 antibodies with the human ANGPTL7 GGPGG_sub-his protein. Binding experiments were performed on Octet HTX (ForteBo) in 1×PBS, pH 7.4, 0.1 mg/mi BSA, 0.05% Sodium Azide, and 0.02% Tween 20. Antibodies at a concentration of 50 nM were loaded on pre-hydrated AHC biosensors for 5 min. The loaded sensors were dipped into monovalent P63 (huANGTPL7-GGPGG_sub-his) at a concentration of 100 nM for 5 min of association, followed by 10 min of dissociation.

[3] = target: T3, P66 (rabbit ANGPTL7-his); assay: BLI Octet HTX; IgG on AHC sensor; P66 at 200 nM; 1:1 fit
Summary of the method: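 Biolayer interferometry in PBS pH 7.4 with 0.1 mg/ml BSA, 0.05% sodium azide, 0.02% Tween 20; antibodies at 50 nM loaded on AHC sensors for 5 min. Monovalent analyte at 200 nM: 5 min association, 10 min dissociation; end-of-association response (nm) recorded, kinetics by 1:1 fit.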

[4] = target: T4, Pext-01 (huANGTPL7-FLAG multimer); assay: BLI Octet HTX; IgG on AHC sensor; Pext-01 at 100 nM; 1:1 fit; apparent KD
Experimental: Experiments were also conducted to determine the reactivity and dissociation constants (KD) of anti-ANGPTL7 antibodies with the human ANGPTL7 multimer protein. Binding experiments were performed on Octet HTX (ForteBio) in 1×PBS, pH 7.4, 0.1 mg/ml BSA, 0.05% Sodium Azide, and 0.02% Tween 20. Antibodies at a concentration of 50 nM were loaded on pre-hydrated AHC biosensors for 5 mi. The loaded sensors were dipped into Pext-01 (huANGTPL7-FLAG) at a concentration of 100 nM for 5 min of association, followed by 10 min of dissociation. […] Responses (nm) at the end of association were also determined (Table 7).

[5] = target: T1, P60 (huANGPTL7-Fibrinogen-his); assay: BLI Octet HTX; IgG on AHC sensor; P60 at 200 nM; 1:1 fit
Summary of the method: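 Anti-ANGPTL7 IgG at 50 nM loaded 5 min on AHC biosensors, then dipped in monovalent P60 at 200 nM: 5 min association, 10 min dissociation.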

Binder	binding result [1]	binding result [2]	Response [3] [nm]	Response [4] [nm]	Response [5] [nm]	Kd [3] [nM]
B1	no binding (tested: 200 nM)	no binding (tested: 100 nM)	0.03	0.03	0.01	–
B2	no binding (tested: 200 nM)	no binding (tested: 100 nM)	0.74	0.65	0.08	0.626
B3	no binding (tested: 200 nM)	no binding (tested: 100 nM)	0.04	0.05	0.02	–
